Reference: paper doi:10.64898/2025.12.08.692997 (bioRxiv, 2025)
Read-outs that look alike come from different tables or passages of the source.

Legend:
[1] = target: Rat EphB1-Fc ectodomain (rat) (UniProt P09759); test: AlphaScreen or HTRF
[2] = target: Rat EphB1-Fc ectodomain (rat) (UniProt P09759); test: BLI
[3] = target: Mouse EphrinB2-His ectodomain (mouse) (UniProt P52800); test: mass photometry
[4] = target: T1, Human EphB2-His ectodomain (human), P29323; test: mass photometry; conditions: remark: other sources report otherwise
T1 chain: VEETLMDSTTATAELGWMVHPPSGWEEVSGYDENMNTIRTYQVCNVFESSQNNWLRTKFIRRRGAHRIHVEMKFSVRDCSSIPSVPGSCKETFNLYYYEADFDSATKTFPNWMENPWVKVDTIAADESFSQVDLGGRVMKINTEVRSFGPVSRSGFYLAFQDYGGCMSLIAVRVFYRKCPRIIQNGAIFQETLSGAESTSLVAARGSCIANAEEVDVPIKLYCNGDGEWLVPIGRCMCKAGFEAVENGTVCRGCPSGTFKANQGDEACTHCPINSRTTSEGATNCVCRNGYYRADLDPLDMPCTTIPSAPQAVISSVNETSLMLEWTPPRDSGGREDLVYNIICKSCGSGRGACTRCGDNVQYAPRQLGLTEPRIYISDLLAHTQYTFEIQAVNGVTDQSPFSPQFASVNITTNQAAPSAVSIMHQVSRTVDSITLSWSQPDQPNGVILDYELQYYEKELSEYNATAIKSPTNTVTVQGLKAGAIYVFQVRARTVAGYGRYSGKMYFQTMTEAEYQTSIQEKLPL

[5] = target: T2, Human EphB2-His ectodomain (human, UniProt P29323 19-543); test: BLI
T2 sequence: T1 chain

[6] = target: T3, Human EphB1-His ectodomain (human, UniProt P54762 18-540); test: BLI
T3 sequence: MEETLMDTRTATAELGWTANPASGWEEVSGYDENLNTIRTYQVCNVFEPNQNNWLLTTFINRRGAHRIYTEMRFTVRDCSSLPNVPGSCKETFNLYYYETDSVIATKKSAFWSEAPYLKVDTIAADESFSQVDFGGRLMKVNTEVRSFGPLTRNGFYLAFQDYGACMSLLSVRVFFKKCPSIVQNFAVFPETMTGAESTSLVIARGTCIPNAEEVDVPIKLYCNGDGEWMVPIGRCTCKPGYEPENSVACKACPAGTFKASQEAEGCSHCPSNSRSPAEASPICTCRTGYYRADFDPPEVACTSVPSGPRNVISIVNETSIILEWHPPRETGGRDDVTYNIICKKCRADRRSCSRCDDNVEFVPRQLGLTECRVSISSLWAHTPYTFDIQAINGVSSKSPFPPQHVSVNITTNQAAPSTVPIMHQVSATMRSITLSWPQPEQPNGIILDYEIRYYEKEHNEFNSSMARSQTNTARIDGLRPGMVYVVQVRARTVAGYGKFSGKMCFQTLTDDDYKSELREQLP

[7] = target: T4, Human EphB4-His ectodomain (human, UniProt P54760 16-539); test: BLI
T4 sequence: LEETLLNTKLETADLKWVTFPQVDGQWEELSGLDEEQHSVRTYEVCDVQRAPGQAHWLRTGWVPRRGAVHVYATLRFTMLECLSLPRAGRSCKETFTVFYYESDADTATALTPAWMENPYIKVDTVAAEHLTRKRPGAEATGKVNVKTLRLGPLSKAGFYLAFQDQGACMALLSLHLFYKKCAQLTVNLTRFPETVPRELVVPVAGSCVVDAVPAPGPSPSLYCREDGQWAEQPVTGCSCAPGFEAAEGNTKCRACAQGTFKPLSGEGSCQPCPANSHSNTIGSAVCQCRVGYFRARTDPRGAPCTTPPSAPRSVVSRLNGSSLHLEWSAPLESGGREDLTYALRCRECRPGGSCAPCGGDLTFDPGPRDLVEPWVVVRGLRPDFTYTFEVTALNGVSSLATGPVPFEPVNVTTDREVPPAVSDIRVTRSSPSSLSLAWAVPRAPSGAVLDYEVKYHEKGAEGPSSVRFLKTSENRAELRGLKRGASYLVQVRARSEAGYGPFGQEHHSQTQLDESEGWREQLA

[8] = target: T2, Human EphB2-His ectodomain; test: BLI; remark: listed apart in the source

With “soluble Reelin protein (from UniProt Q60841 27-3461) (natural protein)” the IC50 [1] was 50 nM.

For “Mouse EphrinB2-His ectodomain (from UniProt P52800 29-232) (domain or fragment)”, the KD1 (2:1 heterologous interaction model) [2] was less than 1 pM, the KD2 (dimer formation, 2:1 model) [2] was 39.7 nM and the stoichiometry N [3] was 2.

B1: Human EphB2-His ectodomain, P29323 19-543 (domain or fragment)
chain: T1 chain
For B1, the stoichiometry N [4] was 2.

B2: Human EphrinB1-Fc ectodomain (Fc fusion)
chain: LAKNLEPVSWSSLNPKFLSGKGLVIYPKIGDKLDIICPRAEAGRPYEYYKLYLVRPEQAAACSTVLDPNVLVTCNRPEQEIRFTIKFQEFSPNYMGLEFKKHHDYYITSTSNGSLEGLENREGGVCRTRTMKIIMKVGQDPNAVTPEQLTTSRPSKEADNTVKMATQAPGSRGSLGDSDGKHETVNQEEKSGPGASGGSSGDPDGFFNS
B2: binds [5]; binds [6].

B3: Human EphrinB2-Fc ectodomain (Fc fusion)
chain: IVLEPIYWNSSNSKFLPGQGLVLYPQIGDKLDIICPKVDSKTVGQYEYYKVYMVDKDQADRCTIKKENTPLLNCAKPDQDIKFTIKFQEFSPNLWGLEFQKNKDYYIISTSNGSLEGLDNQEGGVCQTRAMKILMKVGQDASSAGSTRNKDPTRRPELEAGTNGRSSTTSPFVKPNPGSSTDGNSAGHSGNNILGSEVALFA
B3: binds [7]; binds [6]; binds [8].

B4: Human EphrinB3-Fc ectodomain (Fc fusion)
chain: LSLEPVYWNSANKRFQAEGGYVLYPQIGDRLDLLCPRARPPGPHSSPNYEFYKLYLVGGAQGRRCEAPPAPNLLLTCDRPDLDLRFTIKFQEYSPNLWGHEFRSHHDYYIIATSDGTREGLESLQGGVCLTRGMKVLLRVGQSPRGGAVPRKPVSEMPMERDRGAAHSLEPGKENLPGDPTSNATSRGAEGPLPPPS
B4: binds [5]; binds [6].
